Data on 125 sequences can be found in the supplement of paper PMC9112550, “Optimization of the antimicrobial peptide Bac7 by deep mutational scanning” (BMC Biology, 2022).

The series relates to Escherichia coli TOP10. As to the kind of experiment: shrunken log2 fold change of peptide-encoding DNA abundance (4.5 h post-induction vs induction); higher = less antimicrobial activity (less host growth inhibition). The following applies: time post-induction: 4.5 h; library: site-saturation at positions 5, 18, 19, 20.
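Further: peptides expressed intracellularly from a pBAD plasmid library in pooled LB shake-flask culture, induced with 0.3% L-arabinose, DNA abundance read by NGS, three biological replicates, DESeq2 with apeglm shrinkage.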

As to RRIRCRPPRLPRPRPRPNTGPRP, the “shrunken log2 fold change” value is -0.657. Then RRIRNRPPRLPRPRPRPPQDPRP, with 0.0281. Regarding RRIRVRPPRLPRPRPRPEPEPRP, the “shrunken log2 fold change” value was 0.515. Take RRIRDRPPRLPRPRPRPPRWPRP: the “shrunken log2 fold change” value was 0.331.

Regarding RRIRARPPRLPRPRPRPLFVPRP, the “shrunken log2 fold change” value amounted to 0.0919. As for RRIRDRPPRLPRPRPRPGAGPRP, the “shrunken log2 fold change” value stood at 0.914.

Turning to RRIRFRPPRLPRPRPRPMCVPRP, the “shrunken log2 fold change” value was -0.405. Regarding RRIRNRPPRLPRPRPRPHAMPRP, the “shrunken log2 fold change” value is -0.316. As for RRIRMRPPRLPRPRPRPGARPRP, the “shrunken log2 fold change” value was found to be 1.11. As for RRIRKRPPRLPRPRPRPVNFPRP, the figure is -0.0174; as for RRIRMRPPRLPRPRPRPPYNPRP, -0.575; as for RRIRIRPPRLPRPRPRPHPCPRP, -0.736. Then RRIRQRPPRLPRPRPRPAGHPRP, with 0.000618.

Regarding RRIRMRPPRLPRPRPRPAENPRP, the “shrunken log2 fold change” value amounted to 0.084. As for RRIRHRPPRLPRPRPRPTDAPRP, the figure is 0.0615; as for RRIRGRPPRLPRPRPRPPIHPRP, 0.108; as for RRIRHRPPRLPRPRPRPGDNPRP, -0.0143. Then RRIRMRPPRLPRPRPRPFVRPRP, with -0.01; and RRIRRRPPRLPRPRPRPAGAPRP, with 0.497; and RRIRERPPRLPRPRPRPRAQPRP, with 0.22. As to RRIRFRPPRLPRPRPRPEQLPRP, the “shrunken log2 fold change” value came out at 0.178. For RRIRARPPRLPRPRPRPRNTPRP, the “shrunken log2 fold change” value turned out to be 0.146. In the case of RRIRERPPRLPRPRPRPQDRPRP, the “shrunken log2 fold change” value is -0.167. Consider RRIRVRPPRLPRPRPRPQCKPRP, for which the “shrunken log2 fold change” value is -0.129.

Turning to RRIRCRPPRLPRPRPRPRYCPRP, the “shrunken log2 fold change” value was -0.654. Consider RRIRERPPRLPRPRPRPIAFPRP, for which the “shrunken log2 fold change” value worked out at 0.0152. Then RRIRSRPPRLPRPRPRPTYTPRP, with -0.24; and RRIRARPPRLPRPRPRPWPRPRP, with 0.992; and RRIRTRPPRLPRPRPRPKLHPRP, with -0.101.

As to RRIRERPPRLPRPRPRPTQSPRP, the “shrunken log2 fold change” value was determined as 0.329.

As for RRIRSRPPRLPRPRPRPDLQPRP, the “shrunken log2 fold change” value is -0.193. Turning to RRIRGRPPRLPRPRPRPGLPPRP, the “shrunken log2 fold change” value was 0.747.

Turning to RRIRWRPPRLPRPRPRPHDEPRP, the “shrunken log2 fold change” value is -0.2. With RRIRSRPPRLPRPRPRPPNSPRP, the “shrunken log2 fold change” value was -0.251.

Turning to RRIRCRPPRLPRPRPRPHEEPRP, the “shrunken log2 fold change” value was determined as 0.0524. As for RRIRVRPPRLPRPRPRPRGMPRP, the figure is 0.274. As for RRIRARPPRLPRPRPRPFLIPRP, the figure is -0.367; as for RRIRFRPPRLPRPRPRPKCKPRP, 0.00614; as for RRIRIRPPRLPRPRPRPFAEPRP, -0.221. Turning to RRIRARPPRLPRPRPRPQSTPRP, the “shrunken log2 fold change” value was found to be 0.0836. On to RRIRFRPPRLPRPRPRPADLPRP, for which the “shrunken log2 fold change” value is -0.294. Regarding RRIRLRPPRLPRPRPRPSGKPRP, the “shrunken log2 fold change” value amounted to 0.19. Then RRIRIRPPRLPRPRPRPQQPPRP, with 0.349; and RRIRHRPPRLPRPRPRPNDGPRP, with -0.134. On to RRIRVRPPRLPRPRPRPLREPRP, for which the “shrunken log2 fold change” value worked out at 0.379. With RRIRMRPPRLPRPRPRPARGPRP, the “shrunken log2 fold change” value came out at 1.1. Consider RRIRTRPPRLPRPRPRPNGMPRP, for which the “shrunken log2 fold change” value was -0.245.

As to RRIRVRPPRLPRPRPRPKWLPRP, the “shrunken log2 fold change” value came to 0.0936. For RRIRKRPPRLPRPRPRPQFFPRP, the “shrunken log2 fold change” value was -0.493. For the sequence RRIRYRPPRLPRPRPRPQEEPRP, the “shrunken log2 fold change” value is -0.0969. As to RRIRCRPPRLPRPRPRPMWMPRP, the “shrunken log2 fold change” value amounted to 0.174. Take RRIRHRPPRLPRPRPRPPVGPRP: the “shrunken log2 fold change” value was determined as 0.183. Turning to RRIRSRPPRLPRPRPRPGCLPRP, the “shrunken log2 fold change” value was found to be 0.0602.

Consider RRIRCRPPRLPRPRPRPYVRPRP, for which the “shrunken log2 fold change” value was -0.0787. In the case of RRIRCRPPRLPRPRPRPTRSPRP, the “shrunken log2 fold change” value was determined as 0.643. Turning to RRIRPRPPRLPRPRPRPCGHPRP, the “shrunken log2 fold change” value is -0.0439.

As to RRIRYRPPRLPRPRPRPHDLPRP, the “shrunken log2 fold change” value was -0.00151. Take RRIRERPPRLPRPRPRPWHNPRP: the “shrunken log2 fold change” value is -0.344. With RRIRSRPPRLPRPRPRPSIPPRP, the “shrunken log2 fold change” value is -0.458. Then RRIRDRPPRLPRPRPRPIPSPRP, with 0.0554. Regarding RRIRRRPPRLPRPRPRPQPKPRP, the “shrunken log2 fold change” value was 0.761. As to RRIRPRPPRLPRPRPRPHHYPRP, the “shrunken log2 fold change” value is -0.37.

In the case of RRIRMRPPRLPRPRPRPPQEPRP, the “shrunken log2 fold change” value is 0.161. Consider RRIRNRPPRLPRPRPRPSDVPRP, for which the “shrunken log2 fold change” value was -1.29. Then RRIRSRPPRLPRPRPRPVQPPRP, with 0.107. On to RRIRWRPPRLPRPRPRPGVRPRP, for which the “shrunken log2 fold change” value came out at 0.304. With RRIRYRPPRLPRPRPRPKYMPRP, the “shrunken log2 fold change” value is -0.998. Consider RRIRDRPPRLPRPRPRPHCYPRP, for which the “shrunken log2 fold change” value is -0.106. For the sequence RRIRMRPPRLPRPRPRPPIMPRP, the “shrunken log2 fold change” value came to 0.0866. As for RRIRDRPPRLPRPRPRPGFTPRP, the figure is 0.125; as for RRIRYRPPRLPRPRPRPHTYPRP, -0.189.

Regarding RRIRGRPPRLPRPRPRPWNWPRP, the “shrunken log2 fold change” value worked out at 0.232. Turning to RRIRYRPPRLPRPRPRPFTNPRP, the “shrunken log2 fold change” value came to 0.0209. Regarding RRIRWRPPRLPRPRPRPSAMPRP, the “shrunken log2 fold change” value stood at 0.252. In the case of RRIRDRPPRLPRPRPRPEVFPRP, the “shrunken log2 fold change” value is 0.443. On to RRIRPRPPRLPRPRPRPHVGPRP, for which the “shrunken log2 fold change” value was -0.0279. Take RRIRMRPPRLPRPRPRPEYSPRP: the “shrunken log2 fold change” value stood at 0.0257. For the sequence RRIRWRPPRLPRPRPRPMIFPRP, the “shrunken log2 fold change” value was -0.302.

Consider RRIRQRPPRLPRPRPRPTGWPRP, for which the “shrunken log2 fold change” value turned out to be 0.19. In the case of RRIRTRPPRLPRPRPRPPCWPRP, the “shrunken log2 fold change” value was 0.171. Regarding RRIRGRPPRLPRPRPRPPMEPRP, the “shrunken log2 fold change” value was -0.0178. On to RRIRVRPPRLPRPRPRPSRKPRP, for which the “shrunken log2 fold change” value worked out at 0.00977. As for RRIRNRPPRLPRPRPRPAGSPRP, the “shrunken log2 fold change” value worked out at 0.086.

As to RRIRMRPPRLPRPRPRPTAHPRP, the “shrunken log2 fold change” value is 0.767. Then RRIRTRPPRLPRPRPRPTHRPRP, with -0.185.

Regarding RRIRGRPPRLPRPRPRPWDMPRP, the “shrunken log2 fold change” value was -0.08.

For RRIRNRPPRLPRPRPRPYCDPRP, the “shrunken log2 fold change” value is -0.0156. Then RRIRFRPPRLPRPRPRPERWPRP, with 0.462. Regarding RRIRVRPPRLPRPRPRPFGQPRP, the “shrunken log2 fold change” value is -0.222. On to RRIRSRPPRLPRPRPRPSQRPRP, for which the “shrunken log2 fold change” value was -0.0585. With RRIRQRPPRLPRPRPRPVAYPRP, the “shrunken log2 fold change” value is -0.0015. With RRIRARPPRLPRPRPRPYNRPRP, the “shrunken log2 fold change” value was -0.186. Regarding RRIRYRPPRLPRPRPRPWVTPRP, the “shrunken log2 fold change” value was -0.477. In the case of RRIRQRPPRLPRPRPRPEPFPRP, the “shrunken log2 fold change” value was -0.00936.

On to RRIRGRPPRLPRPRPRPMYHPRP, for which the “shrunken log2 fold change” value is -0.242. As for RRIRPRPPRLPRPRPRPITWPRP, the “shrunken log2 fold change” value is -0.0578. Turning to RRIRSRPPRLPRPRPRPMMEPRP, the “shrunken log2 fold change” value is 0.0765. Turning to RRIRPRPPRLPRPRPRPWCQPRP, the “shrunken log2 fold change” value was determined as 0.0224. As for RRIRIRPPRLPRPRPRPEWVPRP, the “shrunken log2 fold change” value was 0.00655. In the case of RRIRERPPRLPRPRPRPPLFPRP, the “shrunken log2 fold change” value is 0.124. In the case of RRIRVRPPRLPRPRPRPGEAPRP, the “shrunken log2 fold change” value was 0.474. Then RRIRMRPPRLPRPRPRPYHFPRP, with -0.16; and RRIRSRPPRLPRPRPRPSQNPRP, with -0.321. Take RRIRARPPRLPRPRPRPDPYPRP: the “shrunken log2 fold change” value was -0.169. As for RRIRRRPPRLPRPRPRPLQIPRP, the figure is 0.0422. As for RRIRCRPPRLPRPRPRPSFPPRP, the figure is -0.608; as for RRIRPRPPRLPRPRPRPEYTPRP, -0.0863. On to RRIRRRPPRLPRPRPRPIPRPRP, for which the “shrunken log2 fold change” value was determined as 0.625. As for RRIRGRPPRLPRPRPRPGNKPRP, the figure is -0.216; as for RRIRMRPPRLPRPRPRPVREPRP, 1.19; as for RRIRGRPPRLPRPRPRPSSAPRP, 0.592.

RRIRCRPPRLPRPRPRPDLNPRP: the “shrunken log2 fold change” value came out at 0.127. Then RRIRLRPPRLPRPRPRPCTKPRP, with -0.22; and RRIRCRPPRLPRPRPRPMYKPRP, with -0.471; and RRIRNRPPRLPRPRPRPGQWPRP, with 0.244. Regarding RRIRARPPRLPRPRPRPKENPRP, the “shrunken log2 fold change” value came out at 0.379.

As to RRIRVRPPRLPRPRPRPKCSPRP, the “shrunken log2 fold change” value is -0.065. Then RRIRKRPPRLPRPRPRPTARPRP, with 0.508; and RRIRYRPPRLPRPRPRPKQFPRP, with -0.155. As for RRIRVRPPRLPRPRPRPHFCPRP, the figure is -0.0628; as for RRIRDRPPRLPRPRPRPVKQPRP, -0.0215.

Regarding RRIRIRPPRLPRPRPRPQVQPRP, the “shrunken log2 fold change” value is -0.195. As for RRIRQRPPRLPRPRPRPWWFPRP, the “shrunken log2 fold change” value is -0.0566. Consider RRIRDRPPRLPRPRPRPTSMPRP, for which the “shrunken log2 fold change” value was determined as 0.104. For the sequence RRIRVRPPRLPRPRPRPAENPRP, the “shrunken log2 fold change” value was determined as 0.15.
